Source: US20120020975A1 (published 2012)

Target: T1, mouse PCSK9, mPCSK9-8xHIS (mouse, UniProt Q80W65 35-694, limits assumed)
T1 construct: also called His-tagged mouse PCSK9; biotinylated-mouse PCSK9
Assay: KinExA solution equilibrium
Source text: Equilibrium dissociation constant (KD) were obtained from nonlinear regression of the two sets of competition curves using a one-site homogeneous binding model. The KinExA® Pro software was employed in the analysis.

B1: 16F12, anti-PCSK9 huIgG4 (antibody, V domains shown)
VH: QVHLVESGGGVVQPGRSLRLSCAASGFTFNSFGMHWVRQAPGKGLEWVALIWSDGSDEYYADSVKGRFTISRDNSKNTLYLQMNSLRAEDTAVYYCARAIAALYYYYGMDVWGQGTTVTVSS
VL: QSVLTQPPSVSAAPGQKVTISCSGSSSNIGNNFVSWYQQLPGTAPKLLIYDYNKRPSGIPDRFSGSKSGTSATLGITGLQTGDEADYYCGTWDSSLSAYVFGTGTRVTVLQ
notes: also called 16F12.1
For B1, which “fold lower affinity than to human and cyno PCSK9” value is on record?
Its value is 10 to 250 fold.
